Data published in US20240343823A1 (Ablynx, published 2024).
Like-named read-outs stand apart in the source and are kept apart here.

B1: A022600134 (other)
chain: DVQLVESGGGVVQPGGSLRLSCVASGYVHKINFYGWYRQAPGKEREKVAHISIGDQTDYADSAKGRFTISRDESKNTVYLQMNSLRPEDTALYYCRALSRIWPYDYWGQGTLVTVSSGGGGSEVQLVESGGGLVQPGGSLRLSCVASGSIFRSVFSSSTMEWYRQPPGKKRELVARIAPGDGTNYGALYADSVKGRFTISRDDAKKTVDLQMNSLKPEDTGVYFCASGVAWGQGTLVTVSSGGGGSGGGGSGGGGSGGGGSEVQLVESGGGLVQPGGSLRLSCVASGFTFSSFAMTWVRRPPGKGLEWVATITNGGVTSYRDSVKGRFTISRDNAKNTLYLEMTSLNPEDTAVYICANARRTGPRAPTDIGSYRGQGTLVTVSSGGGGSGGGGSGGGGSGGGGSGGGGSGGGGSGGGGSEVQLVESGGGVVQPGGSLRLSCAASGFTFRSFGMSWVRQAPGKGPEWVSSISGSGSDTLYADSVKGRFTISRDNSKNTLYLQMNSLRPEDTALYYCTIGGSLSRSSQGTLVTVSSA
B2: A022600122 (other)
chain: DVQLVESGGGVVQPGGSLRLSCVASGYVHKINFYGWYRQAPGKEREKVAHISIGDQTDYADSAKGRFTISRDESKNTVYLQMNSLRPEDTALYYCRALSRIWPYDYWGQGTLVTVSSGGGGSEVQLVESGGGLVQPGGSLRLSCVASGFTFSSFAMTWVRRPPGKGLEWVATITNGGVTSYRDSVKGRFTISRDNAKNTLYLEMTSLNPEDTAVYICANARRTGPRAPTDIGSYRGQGTLVTVSSGGGGSGGGGSGGGGSGGGGSGGGGSGGGGSGGGGSEVQLVESGGGLVQPGGSLRLSCVASGSIFRSVFSSSTMEWYRQPPGKKRELVARIAPGDGTNYGALYADSVKGRFTISRDDAKKTVDLQMNSLKPEDTGVYFCASGVAWGQGTLVTVSSGGGGSGGGGSGGGGSGGGGSGGGGSGGGGSGGGGSEVQLVESGGGVVQPGGSLRLSCAASGFTFRSFGMSWVRQAPGKGPEWVSSISGSGSDTLYADSVKGRFTISRDNSKNTLYLQMNSLRPEDTALYYCTIGGSLSRSSQGTLVTVSSA
B3: A022600133 (other)
chain: DVQLVESGGGVVQPGGSLRLSCVASGYVHKINFYGWYRQAPGKEREKVAHISIGDQTDYADSAKGRFTISRDESKNTVYLQMNSLRPEDTALYYCRALSRIWPYDYWGQGTLVTVSSGGGGSEVQLVESGGGLVQPGGSLRLSCVASGSIFRSVFSSSTMEWYRQPPGKKRELVARIAPGDGTNYGALYADSVKGRFTISRDDAKKTVDLQMNSLKPEDTGVYFCASGVAWGQGTLVTVSSGGGGSGGGGSGGGGSGGGGSGGGGSGGGGSGGGGSEVQLVESGGGLVQPGGSLRLSCVASGFTFSSFAMTWVRRPPGKGLEWVATITNGGVTSYRDSVKGRFTISRDNAKNTLYLEMTSLNPEDTAVYICANARRTGPRAPTDIGSYRGQGTLVTVSSGGGGSGGGGSGGGGSGGGGSGGGGSGGGGSGGGGSEVQLVESGGGVVQPGGSLRLSCAASGFTFRSFGMSWVRQAPGKGPEWVSSISGSGSDTLYADSVKGRFTISRDNSKNTLYLQMNSLRPEDTALYYCTIGGSLSRSSQGTLVTVSSA
B4: A022600105 (other)
chain: DVQLVESGGGVVQPGGSLRLSCVASGYVHKINFYGWYRQAPGKEREKVAHISIGDQTDYADSAKGRFTISRDESKNTVYLQMNSLRPEDTALYYCRALSRIWPYDYWGQGTLVTVSSGGGGSGGGGSGGGGSGGGGSEVQLVESGGGLVQPGGSLRLSCVASGFTFSSFAMTWVRRPPGKGLEWVATITNGGVTSYRDSVKGRFTISRDNAKNTLYLEMTSLNPEDTAVYICANARRTGPRAPTDIGSYRGQGTLVTVSSGGGGSGGGGSGGGGSGGGGSGGGGSGGGGSGGGGSEVQLVESGGGVVQPGGSLRLSCAASGFTFRSFGMSWVRQAPGKGPEWVSSISGSGSDTLYADSVKGRFTISRDNSKNTLYLQMNSLRPEDTALYYCTIGGSLSRSSQGTLVTVSSA
B5: A022600135 (other)
chain: DVQLVESGGGVVQPGGSLRLSCVASGYVHKINFYGWYRQAPGKEREKVAHISIGDQTDYADSAKGRFTISRDESKNTVYLQMNSLRPEDTALYYCRALSRIWPYDYWGQGTLVTVSSGGGGSEVQLVESGGGLVQPGGSLRLSCVASGSIFRSVFSSSTMEWYRQPPGKKRELVARIAPGDGTNYGALYADSVKGRFTISRDDAKKTVDLQMNSLKPEDTGVYFCASGVAWGQGTLVTVSSGGGGSGGGSEVQLVESGGGLVQPGGSLRLSCVASGFTFSSFAMTWVRRPPGKGLEWVATITNGGVTSYRDSVKGRFTISRDNAKNTLYLEMTSLNPEDTAVYICANARRTGPRAPTDIGSYRGQGTLVTVSSGGGGSGGGGSGGGGSGGGGSGGGGSGGGGSGGGGSEVQLVESGGGVVQPGGSLRLSCAASGFTFRSFGMSWVRQAPGKGPEWVSSISGSGSDTLYADSVKGRFTISRDNSKNTLYLQMNSLRPEDTALYYCTIGGSLSRSSQGTLVTVSSA
B6: A022600131 (other)
chain: DVQLVESGGGVVQPGGSLRLSCVASGYVHKINFYGWYRQAPGKEREKVAHISIGDQTDYADSAKGRFTISRDESKNTVYLQMNSLRPEDTALYYCRALSRIWPYDYWGQGTLVTVSSGGGGSEVQLVESGGGLVQPGGSLRLSCVASGFTFSSFAMTWVRRPPGKGLEWVATITNGGVTSYRDSVKGRFTISRDNAKNTLYLEMTSLNPEDTAVYICANARRTGPRAPTDIGSYRGQGTLVTVSSGGGGSGGGGSGGGGSGGGGSEVQLVESGGGLVQPGGSLRLSCVASGSIFRSVFSSSTMEWYRQPPGKKRELVARIAPGDGTNYGALYADSVKGRFTISRDDAKKTVDLQMNSLKPEDTGVYFCASGVAWGQGTLVTVSSGGGGSGGGGSGGGGSGGGGSGGGGSGGGGSGGGGSEVQLVESGGGVVQPGGSLRLSCAASGFTFRSFGMSWVRQAPGKGPEWVSSISGSGSDTLYADSVKGRFTISRDNSKNTLYLQMNSLRPEDTALYYCTIGGSLSRSSQGTLVTVSSA
B7: A022600132 (other)
chain: DVQLVESGGGVVQPGGSLRLSCVASGYVHKINFYGWYRQAPGKEREKVAHISIGDQTDYADSAKGRFTISRDESKNTVYLQMNSLRPEDTALYYCRALSRIWPYDYWGQGTLVTVSSGGGGSEVQLVESGGGLVQPGGSLRLSCVASGFTFSSFAMTWVRRPPGKGLEWVATITNGGVTSYRDSVKGRFTISRDNAKNTLYLEMTSLNPEDTAVYICANARRTGPRAPTDIGSYRGQGTLVTVSSGGGGSGGGSEVQLVESGGGLVQPGGSLRLSCVASGSIFRSVFSSSTMEWYRQPPGKKRELVARIAPGDGTNYGALYADSVKGRFTISRDDAKKTVDLQMNSLKPEDTGVYFCASGVAWGQGTLVTVSSGGGGSGGGGSGGGGSGGGGSGGGGSGGGGSGGGGSEVQLVESGGGVVQPGGSLRLSCAASGFTFRSFGMSWVRQAPGKGPEWVSSISGSGSDTLYADSVKGRFTISRDNSKNTLYLQMNSLRPEDTALYYCTIGGSLSRSSQGTLVTVSSA

Columns and labels:
Assay in all cases: cell-based or functional assay
[1] = target: T1, human GPC3 on tumor cell lines (HepG2, Huh-7, NCI-H661, MKN-45, NCI-H23, BxPC-3, NCI-H292) (human, UniProt P51654 25-554)
[2] = target: T1, human GPC3 on tumor cell lines (HepG2, …); remark: listed apart in the source
[3] = target: T1, human GPC3 on tumor cell lines (HepG2, …); remark: listed apart in the source

Binder	IC50 (M), Incucyte human TDC HepG2-Nuclight green assay [1]	Max % Killing, Incucyte human TDC HepG2-Nuclight green assay [1]	HepG2 on Incucyte IC50 [2]	HepG2 on Incucyte Max % killing [2]	Huh7 on xCELLigence IC50 [2]	Huh7 on xCELLigence Max % killing [2]	IC50 (M), Incucyte human TDC HepG2-Nuclight green assay [3]	Max % Killing, Incucyte human TDC HepG2-Nuclight green assay [3]
B1	5.28e-10 M	92%	–	–	–	–	–	–
B2	4.45e-10 M	92%	530 pM	93%	261 pM	101%	–	–
B3	4.08e-10 M	92%	–	–	–	–	–	–
B4	–	–	–	–	–	–	2.14e-09 M	85%
B5	6.11e-10 M	91%	–	–	–	–	–	–
B6	4.44e-10 M	94%	–	–	–	–	–	–
B7	7.02e-10 M	91%	683 pM	83%	290 pM	95%	–	–
